Test results reported in publication PMC3629710 (2013).

Molecular target: Abi2-SH3 domain (AbI2B) (SH3 domain array) (Homo sapiens (Human), UniProt Q9NYB9-1)
Test: SH3 domain array (far-western overlay)

Abi2-SH3 domain (AbI2B) (SH3 domain array), sequence (Q9NYB9 451-510): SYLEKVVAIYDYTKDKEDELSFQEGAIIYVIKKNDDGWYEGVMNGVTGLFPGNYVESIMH

binding result: binds
B1: His-tagged-p130Cas-P2 domain (protein)
chain: SLLFRRTKATAPGPEGGGTLHPNPTDKTSSIQSRPLPSPPKFT
